Laboratory results published in publication PMC3460896, “A Common Origin for the Bacterial Toxin-Antitoxin Systems parD and ccd, Suggested by Analyses of Toxin/Target and Toxin/Antitoxin Interactions” (PLoS ONE, 2012).
Values joined by “and” are separate entries in the source; they are usually repeats but may differ in a detail not shown here. Equal entries are not always repeated.

Legend:
CcdB toxin [1] = biological target: T1, CcdB toxin (plasmid F, UniProt P62554 1-101); assay: native MS; CcdB:His6Kis molar ratio 1:4 (Fig. 6D); 100 mM ammonium acetate pH 6.7; lowest protein concentration 5 µM; settings: both partners purified
T1 construct: source: E. coli strain B462 carrying plasmid pULB2250, purified (Sephacryl S-200, MonoQ, CM-Sepharose)

CcdB toxin [2] = biological target: T1, CcdB toxin; assay: native MS; CcdB:His6Kis molar ratios 2:1, 1:1 and 1:2 (Fig. 6A-C); 100 mM ammonium acetate pH 6.7; lowest protein concentration 10 µM; settings: both partners purified
[3] = biological target: the molecule itself; assay: as above
Kid toxin (plasmid R1) = Kid toxin (plasmid R1) (UniProt P13976); assay: native MS; Kid:CcdA ratios 2:1, 1:1 and 1:2; 100 mM ammonium acetate pH 6.7; lowest protein concentration 10 µM
CcdB toxin [4] = biological target: T1, CcdB toxin; assay: native MS; CcdB:CcdA molar ratios 1:2 and 1:4 (CcdA in excess); 100 mM ammonium acetate pH 6.7; lowest protein concentration 10 µM; settings: both partners purified
CcdB toxin [5] = biological target: T1, CcdB toxin; assay: native MS; CcdB:CcdA molar ratios 2:1 and 1:1 (CcdB equal to or in excess of CcdA); 100 mM ammonium acetate pH 6.7; lowest protein concentration 10 µM; settings: both partners purified

T1 sequence (P62554 whole entry): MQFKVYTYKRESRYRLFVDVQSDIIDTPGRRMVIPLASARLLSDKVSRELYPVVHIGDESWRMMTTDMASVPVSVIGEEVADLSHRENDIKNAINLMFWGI
Chain of Kid toxin (plasmid R1) (P13976 24-133): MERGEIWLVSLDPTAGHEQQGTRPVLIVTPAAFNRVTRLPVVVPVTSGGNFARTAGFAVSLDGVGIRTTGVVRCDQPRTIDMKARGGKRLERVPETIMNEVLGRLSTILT

Binder | stoichiometry N (CcdB toxin [1]) | stoichiometry N (CcdB toxin [2]) | stoichiometry N [3] | stoichiometry N (CcdA per Kid (1:2)) (Kid toxin (plasmid R1)) | stoichiometry N (CcdA per Kid (2:2)) (Kid toxin (plasmid R1)) | stoichiometry N (CcdB toxin [4]) | stoichiometry N (CcdB toxin [5])
His6-Kis antitoxin (natural protein, plasmid R1, UniProt P13975 1-85, looked up, also called HisKis; source: purified as described [12]) MHTTRLKRVGGSVMLTVPPALLNALSLGTDNEVGMVIDNGRLIVEPYRRPQYSLAELLAQCDPNAEISAEEREWLDAPATGQEEI | 0.5 His6Kis per CcdB (1:2) | 1 His6Kis per CcdB (2:2) | 2 | – | – | – | –
CcdA antitoxin (natural protein, plasmid F, UniProt P62552 1-72, looked up, source: E. coli strain SG22623 carrying plasmid pKK223CcdA, purified as described previously [35]) MKQRITVTVDSDSYQLLKAYDVNISGLVSTTMQNEARRLRAERWKAENQEGMAEVARFIEMNGSFADENRDW | – | – | – | 0.5 | 1 | 1 CcdA per CcdB (2:2) | 0.5 CcdA per CcdB (1:2) and 0.5 CcdA per CcdB (2:4)
